Reference: article PMC11285730 (Open Biology, 2024)

What was measured:
Assay in all cases: BLI
Details in all cases: both partners purified
[1] = target: T1, SARS-CoV-2 Beta RBD, biotin-tagged (SARS-CoV-2 Beta (B.1.351), E484K | N501Y, biotin)
T1 construct: source: Expi293, purified

[2] = target: T2, SARS-CoV-2 Omicron BA.1 RBD, biotin-tagged (SARS-CoV-2 Omicron BA.1, S371L | S375F | K/V417N | S477N | E484A | N501Y | Y505H, biotin)
T2 construct: source: Expi293, purified

[3] = target: T3, SARS-CoV-2 Omicron BA.4/5 RBD, biotin-tagged (SARS-CoV-2 Omicron BA.4/5, S371F | S375F | D405N | R408S | L452R | E484A | F486V | N501Y, biotin)
T3 construct: source: Expi293, purified

Binder	Kd [1] [pM]	koff [1] [s⁻¹]	kon [1] [M⁻¹ s⁻¹]	Kd [2] [pM]	koff [2] [s⁻¹]	kon [2] [M⁻¹ s⁻¹]	Kd [3] [pM]	koff [3] [s⁻¹]	kon [3] [M⁻¹ s⁻¹]
B5-5 monomer (VHH) VHH: QVQLVESGGGLVQPGGSLRLSCAVFGSTLDNYSVGWFRQLPGKEREGLACFSRRYGAPYYADSAKDRFTISRDNAKNTVDLQLNGLKPEDTAVYYCATRSGPYCTTSVSDFDDWGRGTQVTVSS	65.5	1.29e-05	216000	355	0.000204	576000	684	0.000129	190000
H6 monomer (VHH) VHH: QVQLVESGGGLVQPGGSLTLSCVASESSLAPYRVAWFRQAPGKEREGVSCISRDAHPTSTYYTASVKGRFTMSRDNAKNTVYLQMNSLKPSDTAVYYCATDLGGYCSDSNYPRAWWGQGTQVTVSS	677	0.000337	498000	22700	0.00553	245000	7080	0.00235	333000
A8 monomer (VHH) VHH: QVQLVESGGGLVQAGGSLRLSCAASGGTFSTAAMGWFRQAPGEERECVASIGWRGVRTWYADSVKGRFTISRDNPQNTVYLQMNNLKSGDTAVYYCAASVGNYGLPWAHFEYDFWGQGIQVTVSS	889	0.000289	326000	15700	0.0053	343000	8100	0.00283	349000
